Our source for the Kd values is publication doi:10.1101/2025.03.12.642038, “Structural, biophysical and biological analysis and characterisation of IRF4 DNA-binding domain mutations associated with multiple myeloma”.

Assay in all cases: SPR steady state; FP: PBS + 0.05% Tween20, 5 nM DNA, 1 h, room temperature; SPR: Biacore S200, SA chip, protein 0.1-4500 nM, running buffer not given in material; errors are SD
Background: In SPR one partner is held on a chip, and binding of the other changes the refractive index at the surface.

The target in one series is T1, IRF4 DBD L70V (Homo sapiens, UniProt Q15306 20-132, L70V).
T1 sequence: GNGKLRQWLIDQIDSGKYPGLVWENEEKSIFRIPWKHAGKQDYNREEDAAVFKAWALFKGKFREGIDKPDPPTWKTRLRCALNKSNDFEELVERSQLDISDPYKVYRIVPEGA
As to conditions: protein: recombinant; tags: N-terminal His8-linker-His8-TEV, cleaved; label: 3' biotin; hairpin, TTTT loop.

Another series concerns the target T2, IRF4 DBD S114N (Homo sapiens, UniProt Q15306 20-132, S114N).
T2 sequence: T1 sequence with V51L, S95N
As to conditions: protein: recombinant; tags: N-terminal His8-linker-His8-TEV, cleaved; label: 3' biotin; hairpin, TTTT loop.

A further series concerns the target T3, IRF4 DBD C99S (Homo sapiens, UniProt Q15306 20-132, C99S).
T3 sequence: T1 sequence with V51L, C80S
Particulars: protein: recombinant; label: 3' biotin; hairpin, TTTT loop.

Another series concerns the target T4, IRF4 DBD D106Y (Homo sapiens, UniProt Q15306 20-132, D106Y).
T4 sequence: T1 sequence with V51L, D87Y
Particulars: protein: recombinant; tags: N-terminal His8-linker-His8-TEV, cleaved; label: 3' biotin; hairpin, TTTT loop.

For a further series, the target named is T5, IRF4 DBD K59R (Homo sapiens, UniProt Q15306 20-132, K59R).
T5 sequence: T1 sequence with K40R, V51L
As to conditions: protein: recombinant; tags: N-terminal His8-linker-His8-TEV, cleaved; label: 3' biotin; hairpin, TTTT loop.

Substitutions are numbered along the chain they refer to.

B1: IRE hairpin (biotin) (structured_DNA)
DNA: CTTGGTTTCACTTCCTGCGTTTTCGCAGGAAGTGAAACCAAG
What is called Kd is a measure of binding affinity in units of concentration. For B1, the Kd in the series with IRF4 DBD L70V amounted to 167 ± 82 nM; with IRF4 DBD S114N, 291 ± 79 nM; in the series with IRF4 DBD C99S, 338 ± 173 nM; with IRF4 DBD D106Y, 178 ± 43 nM; with IRF4 DBD K59R, 275 ± 93 nM.
